# According to patent US20020177203A1, “Alpha2 subunit of prolyl 4-hydroxylase” (priority 1996, published 2002):
# What was measured:
# [1] = substrate: O=C1O[C@H]([C@@H](O)CO)C(O)=C1O; experiment: Prolyl 4-hydroxylase activity assay (decarboxylation of 2-oxo[1-14C]glutarate), type 1 enzyme; type: biochemical, human; conditions: other: α12β2, recombinant enzyme from insect cells, 0.1% Triton X-100 extract; pH 7.8
# [2] = substrate: O=C1O[C@H]([C@@H](O)CO)C(O)=C1O; experiment: Prolyl 4-hydroxylase activity assay (decarboxylation of 2-oxo[1-14C]glutarate), type 2 enzyme; type: biochemical; conditions: other: α22β2 (mouse α2, human PDI/β), recombinant enzyme from insect cells; pH 7.8
Protein,Km [1] [µM],Km [2] [µM]
"human type 1 prolyl 4-hydroxylase tetramer (α12β2) (Homo sapiens) (protein, made in house; host or cells: Spodoptera frugiperda Sf9 insect cells (baculovirus co-infection); 0.1% Triton X-100 extract) HPGFFTSIGQMTDLIHTEKDLVTSLKDYIKAEEDKLEQIKKWAEKLDRLTSTATKDPEGFVGHPVNAFKLMKRLNTEWSELENLVLKDMSDGFISNLTIQRQYFPNDEDQVGAAKALLRLQDTYNLDTDTISKGNLPGVKHKSFLTAEDCFELGKVAYTEADYYHTELWMEQALRQLDEGEISTIDKVSVLDYLSYAVYQQGDLDKALLLTKKLLELDPEHQRANGNLKYFEYIMAKEKDVNKSASDDQSDQKTTPKKKGVAVDYLPERQKYEMLCRGEGIKMTPRRQKKLFCRYHDGNRNPKFILAPAKQEDEWDKPRIIRFHDIISDAEIEIVKDLAKPRLRRATISNPITGDLETVHYRISKSAWLSGYENPVVSRINMRIQDLTGLDVSTAEELQVANYGVGGQYEPHFDFARKDEPDAFKELGTGNRIATWLFYMSDVSAGGATVFPEVGASVWPKKGTAVFWYNLFASGEGDYSTRHAACPVLVGNKWVSNKWLHERGQEFRRPCTLSELE",330,–
"mouse/human type 2 prolyl 4-hydroxylase tetramer (α22β2) (Mus musculus) (protein, the cDNA clones, considered in combination, cover the whole coding region of the mouse α2 subunit; made in house; host or cells: Spodoptera frugiperda Sf9 insect cells (baculovirus pVL1392 construct, co-infection with PDI/β virus); 0.1% Triton X-100 extract) WVQAEFFTSIGHMTDLIYAEKDLVQSLKEYILVEEAKLAKIKSWASKMEALTSRSAADPEGYLAHPVNAYKLVKRLNTDWPALGDLVLQDASAGFVANLSVQRQFFPTDEDESGAARALMRLQDTYKLDPDTISRGELPGTKYQAMLSVDDCFGLGRSAYNEGDYYHTVLWMEQVLKQLDAGEEATVTKSLVLDYLSYAVFQLGDLHRAVELTRRLLSLDPSHERAGGNLRYFERLLEEERGKSLSNQTDAGLATQENLYERPTDYLPERDVYESLCRGEGVKLTPRRQKKLFCRYHHGNRVPQLLIAPFKEEDEWDSPHIVRYYDVMSDEEIERIKEIAKPKLARATVRDPKTGVLTVASYRVSKSSWLEEDDDPVVARVNRRMQHITGLTVKTAELLQVANYGMGGQYEPHFDFSRSDDEDAFKRLGTGNRVATFLNYMSDVEAGGATVFPDLGAAIWPKKGTAVFWYNLLRSGEGDYRTRHAACPVLVGCKWVSNKWFHERGQEFLRPCGTTEVD",–,340
